The supplement of paper PMC11865577

Experiments:
Assay in all cases: pull-down binding Z-score (relative to library population); higher = stronger binding
[1] = system: G-clamp-N3 (biotin conjugate); details: RNA library: Library-1 (pre-miRNA loops + repeats)
Procedure, shortened: (§1)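 Streptavidin beads with 100 pmol of biotin-conjugated small molecule were incubated for 60 min at 25 °C with 1 μg of heat-folded Cy5- or Cy3-end-labelled RNA library in phosphate/NaCl/KCl buffer. Bound RNA was eluted in hot SDS after three washes and hybridised to a DNA barcode microarray at 55.5 °C for 20 h. Each binding score is a library-referenced Z-score, computed after beads-only subtraction and a trimmed mean of barcoded replicate probes.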

TO-N3 (biotin conjugate) = details: RNA library: Library-2
Procedure, shortened: as §1

[2] = system: TO-3-N3 (biotin conjugate); details: RNA library: Library-2
Procedure, shortened: as §1

[3] = system: TO-N3-2 (biotin conjugate); details: RNA library: Library-2
Procedure, shortened: as §1

[4] = system: TO-3-N3-2 (biotin conjugate); details: RNA library: Library-2
Procedure, shortened: as §1

Sequence | pull-down binding Z-score [1] | pull-down binding Z-score (TO-N3 (biotin conjugate)) | pull-down binding Z-score [2] | pull-down binding Z-score [3] | pull-down binding Z-score [4]
GGCUGGCCCCCUGCUUCGUGCCCAUCC [hsa-mir-937] | -1.14 | 0.83 | 0.211 | 1.53 | 0.127
GGCUGGGCAGGCGGAAAGAGGUCUGAACUGCCUCUGCC [hsa-mir-6791] | 0.578 | -0.0487 | -0.139 | 0.358 | -0.0685
GGCUGGGGUCACUGACUCUGCUUCCCCUGCC [hsa-mir-6799] | -0.448 | -0.0831 | -0.14 | 0.62 | -0.0439
GGCUGUGAGCUCUAGCAAUGCCC [hsa-mir-146b] | -0.867 | 0.59 | 0.251 | 1.31 | 0.158
GGCUGUGGCCUAGGGCAAGCCACAAAGCC [hsa-mir-4642] | 0.507 | 0.183 | 0.0577 | 0.939 | 0.245
GGCUUUGGCAUCUAUGAAAGCC [hsa-mir-4755] | 0.33 | 0.507 | 0.45 | -0.233 | -0.302
GGGAACUGGUGAGUUGUACAUAGAAAUGCUUUCUAACUCC [hsa-mir-4499] | 0.204 | 0.112 | -0.123 | 0.548 | -0.00162
GGGAAGGAGAAGGGACGCUUCCC [hsa-mir-3127] | 2.68 | 0.268 | 0.262 | 0.895 | 0.167
GGGACACAUUUGAGCCAAAUGUCCC [hsa-mir-610] | -0.286 | -0.525 | -0.35 | -0.132 | -0.331
GGGACAUUGCGGAGAGGGUCUCACAUUGUCCC [hsa-mir-4646] | 0.248 | 0.925 | 0.894 | 0.488 | 0.999
GGGACGUGUGAUGCUGUGCUUCCU [hsa-mir-3689f] | -0.338 | -0.185 | -0.469 | 0.502 | -0.0333
GGGAGAGGGGCCCAGCUGACCCUCCUGUC [hsa-mir-6879] | -0.867 | 1.68 | 0.755 | 1.89 | 0.744
GGGAGCAUGAACAAUGUUUCUCACUCCC [hsa-mir-3162] | 1.01 | 0.299 | 0.186 | 1.13 | -0.49
GGGAGCGGCCCUCACAUUGAUGGCUCCU [hsa-mir-6727] | 1.42 | 0.313 | 0.264 | 0.257 | -0.052
GGGAGGUAAGAAGUCUCUGACUCCU [hsa-mir-5193] | 0.481 | -0.44 | -0.307 | -0.358 | -0.261
GGGAGGUAUGAUAUCGUGGUUCCU [hsa-mir-3689e] | -0.485 | 0.8 | 0.555 | 1.03 | 0.567
GGGAGUGGUUCCAUCACGCCUCCUCAC [hsa-mir-483] | -0.668 | 0.311 | -0.089 | 0.658 | -0.147
GGGAUAUUUGCAUUAUACUUAUCC [hsa-mir-5009] | -0.101 | -0.0499 | 0.0656 | -0.458 | 0.015

Sequence | pull-down binding Z-score [1] | pull-down binding Z-score (TO-N3 (biotin conjugate)) | pull-down binding Z-score [2] | pull-down binding Z-score [3] | pull-down binding Z-score [4]
GGGAUGAGCCCUGGCUCUGUUUCCUAG [hsa-mir-378h] | -0.127 | 0.385 | 0.0333 | 0.596 | -0.0124
GGGCAGAAAUAGAUGGCCU [hsa-mir-4270] | 2.97 | 1 | 1 | 1.07 | 0.429
GGGCAGGGAGGGCAGGGCAGGCUCUGGGGUGGGGGGUCUGUGAGUCAGCCACGGCUC [hsa-mir-4516] | 2.89 | 6.16 | 6.78 | 4.69 | 7.72
GGGCAGGGAGUCAGAGGGGACCGCCC [hsa-mir-4740] | 2.09 | 1.98 | 2.19 | 1.24 | 1.93
GGGCAUUCCGGAUAGGCCGAGAAAGUGUUG [hsa-mir-6723] | 0.79 | 1.67 | 1.45 | 1.42 | 0.568
GGGCCAGUCUGACCGUUUCUAGGCG [hsa-mir-551a] | 0.753 | 1.41 | 0.541 | 1.75 | 0.662
GGGCCAUGUCUGUGAGGGCCCA [hsa-mir-4294] | 3.2 | 0.221 | -0.261 | 0.936 | 0.0026
GGGCCCCAAGACUCGGGGUUU [hsa-mir-4651] | -0.146 | 0.65 | 0.633 | 0.197 | -0.00221
GGGCCGUGCACCCGUGGGCCCC [hsa-mir-1915] | 1.73 | 0.335 | -0.204 | 1.28 | 0.0124
GGGCCUGGGUUUCUGAACAC [hsa-mir-196a-1] | 0.486 | 0.611 | 0.328 | 0.762 | 0.334
GGGCGCCGGCGGCCGGGAGAUCCGCGCUUCCUGAAUCCCGGCCGGCCCGCCCGGCGCCC [hsa-mir-4497] | -0.232 | 0.447 | 0.25 | 1.22 | -0.00137
GGGCGGAACACCCAGCCCC [hsa-mir-4417] | -1.31 | -0.21 | -0.4 | 0.785 | -0.246
GGGCGUGGUGGACAGCGAUGCAUCCC [hsa-mir-6803] | 1.56 | 0.84 | 0.532 | 1.19 | 0.187
GGGCUCGUGAUGGCUGGUGGGCCC [hsa-mir-345] | 3 | -0.356 | -0.497 | 0.665 | -0.191
GGGCUGCCCGGGCCGGUCGACCAGCGCGCCGUAGCUCC [hsa-mir-6724-2_6724-3_6724-1_6724-4] | 0.0384 | 1.03 | 0.0652 | 2.24 | -0.0157
GGGCUUUCUGGUUUUAUUUUAAGCCC [hsa-mir-186] | 0.465 | 0.261 | 0.594 | -0.494 | 0.0672
GGGGAGAGGGACACGCCCUGGGCUCUGCCCAGGGUGCAGCCGGACUGACUGAG [hsa-mir-1225] | 1.58 | 1.95 | 1.55 | 1.99 | 1.1
GGGGAUGGACUGGAAGUGGGCAGCAUGGAGCUGACCUUCAUCAUGGCUUGGCCAACAUAAUGCCUC [hsa-mir-1236] | -0.0946 | 1.98 | 1.72 | 1.38 | 1.33
